We go through 3 molecules from PMC3679926.

Data set [1] deals with T1, p53 (rp53) (UniProt P04637 1-393). Description: EMSA. A general note: A gel shift assay detects complexes by their altered migration in electrophoresis.
Data set [2] concerns the target T1, p53 (rp53). Kind of data set: competition.

T1 sequence (P04637 whole entry): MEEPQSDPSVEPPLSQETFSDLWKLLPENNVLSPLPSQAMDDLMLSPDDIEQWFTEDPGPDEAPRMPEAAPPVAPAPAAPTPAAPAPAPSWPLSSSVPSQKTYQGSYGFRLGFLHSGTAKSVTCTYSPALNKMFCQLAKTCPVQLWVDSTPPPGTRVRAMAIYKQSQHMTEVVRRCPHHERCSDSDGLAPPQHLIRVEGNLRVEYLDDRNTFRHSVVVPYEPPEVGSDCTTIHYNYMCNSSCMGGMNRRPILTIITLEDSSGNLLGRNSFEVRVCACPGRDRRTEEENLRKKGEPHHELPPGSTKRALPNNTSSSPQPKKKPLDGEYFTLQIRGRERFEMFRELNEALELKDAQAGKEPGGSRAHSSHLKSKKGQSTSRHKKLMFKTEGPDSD

B1: p53RE wt (miR-205 upstream p53BS) (dsDNA)
DNA 1: ACTGAGCCATGGGCATGTCTGAACACAACA
DNA 2: TGTTGTGTTCAGACATGCCCATGGCTCAGT
As for B1, in the data set with p53 (rp53) [1], the binding result was “binds”.

B2: p53RE MUT (dsDNA)
DNA 1: ACTGAGCCATCCCGGCCGGCGAACACAACA
DNA 2: TGTTGTGTTCGCCGGCCGGGATGGCTCAGT
In the case of B2, in the data set with p53 (rp53) [1], the binding result is listed as “no binding”.

B3: p53RE wt, unlabeled competitor (dsDNA)
DNA 1: ACTGAGCCATGGGCATGTCTGAACACAACA
DNA 2: TGTTGTGTTCAGACATGCCCATGGCTCAGT
In the case of B3, the binding result in the data set with p53 (rp53) [2] is reported as “binds”.
